No end group written: not given here. *: point of attachment. CH2Cl = ClC*
Columns and labels:
GPM-bNA = biological target: T1, GPM-bNA
T1 sequence (peptide, C-terminal beta-naphthylamide): GPM

[1] = biological target: T2, D-phenylalanyl-L-prolyl-L-arginine beta-napthylamide
T2 sequence (peptide, D-phenylalanine at position 1; C-terminal beta-naphthylamide): FPR

[2] = biological target: T3, L-alanyl-L-prolyl-L-phenylalanine beta-naphthylamide
T3 sequence (peptide, C-terminal beta-naphthylamide): APF

[3] = biological target: T4, tripeptidyl aminopeptidase-S (Tap) of Streptomyces lividans 66 (Streptomyces lividans 66); assay: inactivation kinetics of purified Tap on ice, residual activity with APA-pNA (Example 8)
T4 chain: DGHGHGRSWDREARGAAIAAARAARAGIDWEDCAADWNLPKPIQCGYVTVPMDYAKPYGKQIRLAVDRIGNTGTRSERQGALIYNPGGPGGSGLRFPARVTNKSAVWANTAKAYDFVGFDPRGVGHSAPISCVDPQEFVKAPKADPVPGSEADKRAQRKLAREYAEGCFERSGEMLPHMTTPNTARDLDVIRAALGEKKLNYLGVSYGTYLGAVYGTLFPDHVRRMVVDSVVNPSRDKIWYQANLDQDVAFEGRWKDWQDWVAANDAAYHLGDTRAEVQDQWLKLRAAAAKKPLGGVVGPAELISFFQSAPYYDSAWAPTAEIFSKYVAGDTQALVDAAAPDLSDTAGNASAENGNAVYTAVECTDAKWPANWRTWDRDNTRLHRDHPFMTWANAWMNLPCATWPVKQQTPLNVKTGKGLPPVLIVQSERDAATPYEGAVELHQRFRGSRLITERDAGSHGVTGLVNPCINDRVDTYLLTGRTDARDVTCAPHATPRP
Experimental: A stock solution of 1.1 uM Tap in 50 mM Tris-HCl, pH 8.0 was prepared. APACMK stock solutions of 11 uM, 13.8 uM, 17.3 uM, 21.7 uM, 27.0 uM, 54.0 uM, 108 uM, and 1.08 mM were prepared. The Substrate Solution was 50 mM Tris-HCl, pH 8.0, 0.8 mM APA-pNA. The inactivation was performed by placing 90 ul of Tap […] in a 1.5 ml Eppendorf tube on ice and adding 10 ul of water (uninhibited control) or 10 ul of APACMK. A 10 ul aliquot was removed immediately and was assayed by adding it to a cuvette containing 390 ul Substrate Solution at 22° C. The initial velocity was obtained from the change in absorbance at 405 nm during the first 10 seconds of the assay. Additional aliquots were removed at time points and assayed by the same method. At APACMK concentrations greater than 5.0 uM in the incubation, it was not possible to remove an aliquot from the incubation before 90% inactivation occurred.

[4] = biological target: tripeptidyl aminopeptidase-S (Tap) of Streptomyces lividans 66 (Streptomyces lividans 66)

Q: With “soluble SlpE secreted from AP6.SlpE (enzyme)” as the molecule, how does the A540, Boc-APARSPA-bNA assay on 20 µl cell-free broth (Boc-APARSPA-bNA) read?
A: 0.084 A540

Q: Which results are given for “soluble SlpD secreted from AP6.SlpD (enzyme)”?
A: A405, APA-bNA assay on 20 µl cell-free broth (APA-bNA): 1.15 A405; A540, Boc-APARSPA-bNA assay on 20 µl cell-free broth (Boc-APARSPA-bNA): 0.278 A540

B1: tripeptidyl aminopeptidase-S (Tap) of Streptomyces lividans 66 (enzyme)
chain: DGHGHGRSWDREARGAAIAAARAARAGIDWEDCAADWNLPKPIQCGYVTVPMDYAKPYGKQIRLAVDRIGNTGTRSERQGALIYNPGGPGGSGLRFPARVTNKSAVWANTAKAYDFVGFDPRGVGHSAPISCVDPQEFVKAPKADPVPGSEADKRAQRKLAREYAEGCFERSGEMLPHMTTPNTARDLDVIRAALGEKKLNYLGVSYGTYLGAVYGTLFPDHVRRMVVDSVVNPSRDKIWYQANLDQDVAFEGRWKDWQDWVAANDAAYHLGDTRAEVQDQWLKLRAAAAKKPLGGVVGPAELISFFQSAPYYDSAWAPTAEIFSKYVAGDTQALVDAAAPDLSDTAGNASAENGNAVYTAVECTDAKWPANWRTWDRDNTRLHRDHPFMTWANAWMNLPCATWPVKQQTPLNVKTGKGLPPVLIVQSERDAATPYEGAVELHQRFRGSRLITERDAGSHGVTGLVNPCINDRVDTYLLTGRTDARDVTCAPHATPRP
Q: How did the Tripeptidyl Aminopeptidase Activity (A540 above background) (A540 above background) (GPM-bNA) turn out when B1 was run?
A: > 3

Q: What about the Tripeptidyl Aminopeptidase Activity (A540 above background) (A540 above background) [1] of the same molecule?
A: 0.02

Q: And the Tripeptidyl Aminopeptidase Activity (A540 above background) (A540 above background) [2]?
A: > 3

B2: L-alanyl-L-prolyl-L-alanine chloromethylketone (peptide)
peptide: Ala-Pro-Ala-CH2Cl
modifications: also: hydrochloride salt
Q: For B2, which Ki [3] is on record?
A: 3.3 µM

Q: And the inactivation of Tap, residual activity assayed with APA-pNA [4]?
A: > 99%

Q: And the kinact [4]?
A: 0.14 min⁻¹

Source: patent US6127144, “Method for expression of proteins in bacterial host cells” (Cangene Corporation, dated 2000)
